The values below come from patent publication US20240076386.

The nature of this data set: AC-SINS self-interaction.

Regarding Polyreactivity negative control, the AC-SINS (wavelength of maximum absorbance relative to blank, nm) was determined as 1 nm.
